The values that follow come from PMC3149649, “Evidence for a Two-Metal-Ion Mechanism in the Cytidyltransferase KdsB, an Enzyme Involved in Lipopolysaccharide Biosynthesis” (PLoS ONE, 2011).

Substrate in the data set: Nc1ccn([C@@H]2O[C@H](COP(=O)(O)OP(=O)(O)OP(=O)(O)O)[C@@H](O)[C@H]2O)c(=O)n1
Kind of data set: discontinuous CMP-Kdo formation assay (Ray et al.), non-linear Michaelis-Menten fit. Type of data set: biochemical, Aquifex aeolicus. The note with it: co-substrate Kdo held constant (>5 x Km), 10 mM MgCl2 (typical mixture), 100 mM glycine-NaOH pH 9.0, 50°C.

B1: AA-LCKS (LPS-specific CMP-Kdo synthetase, KdsB) (Aquifex aeolicus VF5) (protein)
chain: MRRAVIIPARLGSTRLKEKPLKNLLGKPLIRWVVEGLVKTGERVILATDSERVKEVVEDLCEVFLTPSDLPSGSDRVLYVVRDLDVDLIINYQGDEPFVYEEDIKLIFRELEKGERVVTLARKDKEAYERPEDVKVVLDREGYALYFSRSPIPYFRKNDTFYPLKHVGIYGFRKETLMEFGAMPPSKLEQIEGLEQLRLLENGIKIKVLITENYYHGVDTEEDLKIVEEKLKNL
notes: recombinant from plasmid pT7-kdsB in E. coli BL21-CodonPlus(DE3)-RIL; no tag mentioned; monomer 27 kDa, gel filtration 53 kDa, homodimer
One may read the Km as the substrate concentration at which the rate is half of its maximum. The kcat is the maximal rate divided by the concentration of active sites. Consider B1, for which the Km was determined as 160 ± 4 µM and the kcat came out at 9.5 ± 0.5 s⁻¹.
